# Reference: the supplement of paper PMC10567573
# B1: ZNF263 (parent)
# chain: FAHSSNLLRHQRIHTGERPYKCPE
# Variants of: B1
# Assay: protein stability index of a GFP-peptide fusion (GPS, HEK-293T) (PSI 1-6); higher = more stable
# Settings: c terminus: a fixed tail appended
# 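Note: lentivirally expressed fusions sorted by FACS into six bins by GFP to DsRed ratio, PSI derived from sequencing read proportions per bin multiplied by bin number.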
row,Variant,protein stability index
1,FAHSSNLLRHQRIHTGEREYKCPE,3.67
2,FAHSSNLLRHQRIHTGERWYKCPE,1.83
3,FAHSSNLLRHQRIHTGERKYKCPE,3.02
4,FAHSSNLLRHQRIHTGERMYKCPE,3.05
5,FAHSSNLLRHQRIHTGERTYKCPE,3.02
6,FAHSSNLLRHQRIHTGERLYKCPE,2.65
7,FAHSSNLLRHQRIHTGERFYKCPE,2.74
8,FAHSSNLLRHQRIHTGERYYKCPE,2.58
9,FAHSSNLLRHQRIHTGERVYKCPE,2.67
10,FAHSSNLLRHQRIHTGERQYKCPE,3.17
11,FAHSSNLLRHQRIHTGERCYKCPE,2.48
12,FAHSSNLLRHQRIHTGERIYKCPE,2.38
13,FAHSSNLLRHQRIHTGERHYKCPE,2.89
14,FAHSSNLLRHQRIHTGERRYKCPE,2.9
15,FAHSSNLLRHQRIHTGERAYKCPE,2.54
16,FAHSSNLLRHQRIHTGERGYKCPE,2.59
17,FAHSSNLLRHQRIHTGERNYKCPE,2.75
18,FAHSSNLLRHQRIHTGERSYKCPE,2.69
19,FAHSSNLLRHQRIHTGERDYKCPE,3.71
20,FAHSSNLLRHQRIHTGERPYCCPE,2.56
21,FAHSSNLLRHQRIHTGERPYSCPE,2.29
22,FAHSSNLLRHQRIHTGERPYPCPE,2.51
23,FAHSSNLLRHQRIHTGERPYACPE,2.41
24,FAHSSNLLRHQRIHTGERPYDCPE,2.62

row,Variant,protein stability index
1,FAHSSNLLRHQRIHTGERPYFCPE,2.56
2,FAHSSNLLRHQRIHTGERPYLCPE,2.4
3,FAHSSNLLRHQRIHTGERPYMCPE,2.07
4,FAHSSNLLRHQRIHTGERPYICPE,2.6
5,FAHSSNLLRHQRIHTGERPYRCPE,1.97
6,FAHSSNLLRHQRIHTGERPYGCPE,2.21
7,FAHSSNLLRHQRIHTGERPYWCPE,2.64
8,FAHSSNLLRHQRIHTGERPYTCPE,2.83
9,FAHSSNLLRHQRIHTGERPYHCPE,2.49
10,FAHSSNLLRHQRIHTGERPYYCPE,2.81
11,FAHSSNLLRHQRIHTGERPYQCPE,2.3
12,FAHSSNLLRHQRIHTGERPYNCPE,3.13
13,FAHSSNLLRHQRIHTGERPYECPE,2.79
14,FAHSSNLLRHQRIHTGERPYVCPE,2.65
15,FAHSSNLLRHQRIHTGERPVKCPE,3.48
16,FAHSSNLLRHQRIHTGERPKKCPE,3.43
17,FAHSSNLLRHQRIHTGERPEKCPE,3.68
18,FAHSSNLLRHQRIHTGERPWKCPE,2.75
19,FAHSSNLLRHQRIHTGERPNKCPE,3.29
20,FAHSSNLLRHQRIHTGERPHKCPE,3.23
21,FAHSSNLLRHQRIHTGERPRKCPE,2.91
22,FAHSSNLLRHQRIHTGERPFKCPE,2.77
23,FAHSSNLLRHQRIHTGERPCKCPE,2.37
24,FAHSSNLLRHQRIHTGERPPKCPE,3.02

row,Variant,protein stability index
1,FAHSSNLLRHQRIHTGERPDKCPE,3.46
2,FAHSSNLLRHQRIHTGERPLKCPE,2.81
3,FAHSSNLLRHQRIHTGERPSKCPE,3.31
4,FAHSSNLLRHQRIHTGERPTKCPE,3.38
5,FAHSSNLLRHQRIHTGERPAKCPE,3.51
6,FAHSSNLLRHQRIHTGERPMKCPE,2.72
7,FAHSSNLLRHQRIHTGERPGKCPE,3.32
8,FAHSSNLLRHQRIHTGERPIKCPE,2.63
9,FAHSSNLLRHQRIHTGERPQKCPE,3.48
10,FAHSSNLLRHQRIHTGERPYKCLE,2.12
11,FAHSSNLLRHQRIHTGERPYKCIE,2.58
12,FAHSSNLLRHQRIHTGERPYKCTE,2.29
13,FAHSSNLLRHQRIHTGERPYKCNE,2.56
14,FAHSSNLLRHQRIHTGERPYKCGE,2.82
15,FAHSSNLLRHQRIHTGERPYKCVE,1.87
16,FAHSSNLLRHQRIHTGERPYKCDE,2.47
17,FAHSSNLLRHQRIHTGERPYKCME,2.2
18,FAHSSNLLRHQRIHTGERPYKCSE,2.41
19,FAHSSNLLRHQRIHTGERPYKCEE,2.67
20,FAHSSNLLRHQRIHTGERPYKCAE,2.54
21,FAHSSNLLRHQRIHTGERPYKCRE,1.95
22,FAHSSNLLRHQRIHTGERPYKCFE,2.11
23,FAHSSNLLRHQRIHTGERPYKCKE,2.52
24,FAHSSNLLRHQRIHTGERPYKCCE,1.64

row,Variant,protein stability index
1,FAHSSNLLRHQRIHTGERPYKCHE,2.36
2,FAHSSNLLRHQRIHTGERPYKCQE,3
3,FAHSSNLLRHQRIHTGERPYKIPE,2.06
4,FAHSSNLLRHQRIHTGERPYKLPE,2.25
5,FAHSSNLLRHQRIHTGERPYKRPE,2.29
6,FAHSSNLLRHQRIHTGERPYKHPE,2.8
7,FAHSSNLLRHQRIHTGERPYKWPE,2.08
8,FAHSSNLLRHQRIHTGERPYKGPE,2.36
9,FAHSSNLLRHQRIHTGERPYKDPE,3.74
10,FAHSSNLLRHQRIHTGERPYKAPE,3.1
11,FAHSSNLLRHQRIHTGERPYKSPE,3.48
12,FAHSSNLLRHQRIHTGERPYKVPE,2.13
13,FAHSSNLLRHQRIHTGERPYKYPE,2.44
14,FAHSSNLLRHQRIHTGERPYKNPE,2.95
15,FAHSSNLLRHQRIHTGERPYKMPE,2.26
16,FAHSSNLLRHQRIHTGERPYKQPE,2.9
17,FAHSSNLLRHQRIHTGERPYKTPE,2.03
18,FAHSSNLLRHQRIHTGERPYKEPE,3.37
19,FAHSSNLLRHQRIHTGERPYKPPE,2.58
20,FAHSSNLLRHQRIHTGERPYKKPE,2.15
21,FAHSSNLLRHQRIHTGERPYKFPE,2.08
22,FAHSSNLLRHQRIHTQERPYKCPE,2.01
